Assay results: US20170349625A1

Legend:
[1] = tested on: T1, 5,6-carboxyfluorescein labeled Tub-tag peptide (CF-Tub-tag, peptide 13)
T1 sequence: VDSVEGEGEEEGEE

[2] = biological target: GBP4-Tub-tag (GFP-specific nanobody GBP4 with the Tub-tag sequence fused to its C-terminus); experiment: cell-based or functional assay
Sequence of GBP4-Tub-tag (GFP-specific nanobody GBP4 with the Tub-tag sequence fused to its C-terminus) (heavy, as listed by the source): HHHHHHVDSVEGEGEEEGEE

Row | C-terminally modified GBP4 (3-N3-L-tyrosine incorporation followed by SPAAC to DBCO-biotin), 1:10 TTL/GBP4, 37 C, one hour [2] | conversion of GBP4 (3-N3-L-tyrosine incorporation followed by SPAAC to DBCO-biotin), 1:5 TTL/GBP4, 37 C, one hour [2] | conversion of GBP4, 1:5 TTL/GBP4, three hours [2] | conversion of GBP4, 1:10 TTL/GBP4, three hours [2] | Substance | conjugate yield after 120 min at 37 C, 3-N3-L-tyrosine (3), TTL:peptide 1:200, isocratic HPLC [1] | conjugate yield after 120 min at 37 C, 3-formyl-L-tyrosine (1), TTL:peptide 1:200, isocratic HPLC [1]
1 |  |  |  |  | tubulin tyrosine ligase (TTL, Canis lupus) | After 120 min of incubation at 37 °C the conjugate yield with 1 and 3 was 63% and 80%, respectively | After 120 min of incubation at 37 °C the conjugate yield with 1 and 3 was 63% and 80%, respectively
2 | 71% | 82% | 99% | 88% | tubulin tyrosine ligase (TTL, Canis lupus) (enzyme) |  | 
